Laboratory results published in patent US20220289857A1.
Where “and” joins values, the source holds several entries; their conditions need not be identical. Identical values can stand only once.

Assays:
[1] = target: cynomolgus macaque Fn14-GST (cynomolgus macaque (Macaca fascicularis)); experiment: SPR Biacore T200; cyno Fn14-GST captured by anti-GST, Fab analyte; 1:1 fit
[2] = target: His-SUMO-huFn14 (soluble human Fn14 aa 28-75 with N-terminal 6xHis-SUMO tag) (human); experiment: SPR Biacore T200; His-SUMO-huFn14 amine-coupled, Fab analyte; average of two runs
[3] = target: His-SUMO-huFn14 (soluble human Fn14 aa 28-75 with N-terminal 6xHis-SUMO tag) (human); experiment: SPR Biacore T200; His-SUMO-huFn14 amine-coupled, Fab analyte; 1:1 fit
[4] = target: cynomolgus macaque Fn14-GST (cynomolgus macaque (Macaca fascicularis)); experiment: SPR Biacore T200; cyno Fn14-GST captured by anti-GST, Fab analyte; average of two runs
[5] = target: human Fn14 (full length) on cells (human) (UniProt Q9NP84); experiment: cell-based or functional assay
Chain of human Fn14 (full length) on cells (human) (Q9NP84 28-129): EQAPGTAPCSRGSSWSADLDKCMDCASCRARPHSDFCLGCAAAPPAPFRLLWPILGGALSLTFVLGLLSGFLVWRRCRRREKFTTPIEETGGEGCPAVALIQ

Chain of cynomolgus macaque Fn14-GST (cynomolgus macaque (Macaca fascicularis)) (chain, as listed by the source): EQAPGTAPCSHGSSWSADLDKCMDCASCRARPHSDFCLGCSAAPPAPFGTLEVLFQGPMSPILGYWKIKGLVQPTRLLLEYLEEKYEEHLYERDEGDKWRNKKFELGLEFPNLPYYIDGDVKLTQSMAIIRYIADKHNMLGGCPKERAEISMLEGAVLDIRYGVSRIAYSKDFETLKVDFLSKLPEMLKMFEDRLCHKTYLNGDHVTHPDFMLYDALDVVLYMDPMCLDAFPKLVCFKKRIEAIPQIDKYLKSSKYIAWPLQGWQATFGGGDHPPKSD
Chain of His-SUMO-huFn14 (soluble human Fn14 aa 28-75 with N-terminal 6xHis-SUMO tag) (human) (chain, as listed by the source limits assumed): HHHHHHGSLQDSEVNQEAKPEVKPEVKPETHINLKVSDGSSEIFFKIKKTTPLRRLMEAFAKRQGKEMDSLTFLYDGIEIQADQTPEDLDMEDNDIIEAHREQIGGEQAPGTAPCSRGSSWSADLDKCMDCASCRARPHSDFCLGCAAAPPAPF

Row | Substance | Kd [1] | koff [1] | kon [1] | Kd [2] | Kd [3] | koff [3] | kon [3] | Kd [4] | ICAM-1 MFI on HRMC, 250 ng/mL rhTWEAK, mAb 0.1 µg/mL [5]
1 | ITEM-4 Fab (enzymatic digest) | 1.39 nM and 1.21 nM | 0.00118 s⁻¹ and 0.00202 s⁻¹ | 1.31e+06 M⁻¹ s⁻¹ and 1.68e+06 M⁻¹ s⁻¹ | 1.62 nM | 1.8 nM and 1.43 nM | 0.00304 s⁻¹ and 0.00279 s⁻¹ | 1.68e+06 M⁻¹ s⁻¹ and 1.94e+06 M⁻¹ s⁻¹ | 1.3 nM | –
2 | mIgG1 isotype control antibody | – | – | – | – | – | – | – | – | 33300 MFI
3 | mIgG2b isotype control antibody | – | – | – | – | – | – | – | – | 34700 MFI
